Data published in FireProtDB (doi:10.1021/bi051013y).

Details: Pleurotus ostreatus, Thermal, whole UniProt chain shown
[1] = pH 6, 25 °C, Absorbance, Carbonate 10 mM, reversible: yes
[2] = pH 6, Absorbance, Carbonate 10 mM, reversible: yes
[3] = pH 6, absorbance, HEPES, transition: 2, reversible: YES
[4] = pH 8, 25 °C, Absorbance, HEPES 10 mM, reversible: yes
[5] = pH 8, Absorbance, HEPES 10 mM, reversible: yes
[6] = pH 8, absorbance, HEPES, transition: 2, reversible: YES
[7] = pH 9, Absorbance, Borate 10 mM, reversible: yes
[8] = pH 9, absorbance, HEPES, transition: 2, reversible: YES
[9] = pH 10, 25 °C, Absorbance, Carbonate 10 mM, reversible: yes
[10] = pH 10, Absorbance, Carbonate 10 mM, reversible: yes
[11] = pH 10, absorbance, HEPES, transition: 2, reversible: YES
[12] = pH 11, 25 °C, Absorbance, Carbonate 10 mM, reversible: yes
[13] = pH 11, Absorbance, Carbonate 10 mM, reversible: yes

B1: wild type, Q56QW9 (protein)
chain: AYAQWVIILIHNVGQQNVKIKNLNASWGKLYADGDKDTEVPASKYEGMVIAPGDQVQINACGREDAAEGTTGTFDLVDPNDSDKQVRHISWDCPWGTKANSWVVGGSNSKWMIEYTGQNLDSGALGTITVNTLKIGN
Question: Which “heat capacity change of unfolding” value [1] does the source give for B1 here?
Answer: 2.87 kcal/mol/K

Question: What about the “unfolding enthalpy (van 't Hoff)” value [1] of the same protein?
Answer: 62.9 kcal/mol

Question: And the unfolding free energy [1]?
Answer: 7.27 kcal/mol

Question: What about the Tm [2] of the same protein?
Answer: 48.6 °C

Question: And the “unfolding enthalpy (van 't Hoff)” value [2]?
Answer: 130 kcal/mol

Question: And the Tm [3]?
Answer: 48.6 °C

Question: What about the “unfolding enthalpy (van 't Hoff)” value [3] of the same protein?
Answer: 130 kcal/mol

Question: And the “unfolding enthalpy (calorimetric)” value (pH 6, absorbance, HEPES)?
Answer: 62.9 kcal/mol

Question: What about the unfolding free energy (pH 6, absorbance, HEPES) of the same protein?
Answer: 7.27 kcal/mol

Question: And the Tm (pH 7, absorbance, HEPES, transition: 3, reversible: YES)?
Answer: 54.6 °C

Question: And the “heat capacity change of unfolding” value [4]?
Answer: 2.87 kcal/mol/K

Question: And the “unfolding enthalpy (van 't Hoff)” value [4]?
Answer: 64.5 kcal/mol

Question: What about the unfolding free energy [4] of the same protein?
Answer: 8.94 kcal/mol

Question: What about the Tm [5] of the same protein?
Answer: 51.2 °C

Question: What about the “unfolding enthalpy (van 't Hoff)” value [5] of the same protein?
Answer: 140 kcal/mol

Question: And the Tm [6]?
Answer: 51.2 °C

Question: And the “unfolding enthalpy (van 't Hoff)” value [6]?
Answer: 140 kcal/mol

Question: And the “unfolding enthalpy (calorimetric)” value (pH 8, absorbance, HEPES)?
Answer: 64.5 kcal/mol

Question: And the unfolding free energy (pH 8, absorbance, HEPES)?
Answer: 8.94 kcal/mol

Question: What about the Tm [7] of the same protein?
Answer: 47.2 °C

Question: And the “unfolding enthalpy (van 't Hoff)” value [7]?
Answer: 130 kcal/mol

Question: And the Tm [8]?
Answer: 47.2 °C

Question: And the “unfolding enthalpy (van 't Hoff)” value [8]?
Answer: 130 kcal/mol

Question: What about the “unfolding enthalpy (calorimetric)” value (pH 9, absorbance, HEPES) of the same protein?
Answer: 66.2 kcal/mol

Question: What about the unfolding free energy (pH 9, absorbance, HEPES) of the same protein?
Answer: 7.05 kcal/mol

Question: What about the “heat capacity change of unfolding” value [9] of the same protein?
Answer: 2.87 kcal/mol/K

Question: And the “unfolding enthalpy (van 't Hoff)” value [9]?
Answer: 60.5 kcal/mol

Question: What about the unfolding free energy [9] of the same protein?
Answer: 3.47 kcal/mol

Question: What about the Tm [10] of the same protein?
Answer: 39.4 °C

Question: And the “unfolding enthalpy (van 't Hoff)” value [10]?
Answer: 102 kcal/mol

Question: What about the Tm [11] of the same protein?
Answer: 39.4 °C

Question: And the “unfolding enthalpy (van 't Hoff)” value [11]?
Answer: 102 kcal/mol

Question: And the “unfolding enthalpy (calorimetric)” value (pH 10, absorbance, HEPES)?
Answer: 60.5 kcal/mol

Question: And the unfolding free energy (pH 10, absorbance, HEPES)?
Answer: 3.47 kcal/mol

Question: What about the “heat capacity change of unfolding” value [12] of the same protein?
Answer: 2.87 kcal/mol/K

Question: What about the “unfolding enthalpy (van 't Hoff)” value [12] of the same protein?
Answer: 66.4 kcal/mol

Question: And the unfolding free energy [12]?
Answer: 2.32 kcal/mol

Question: What about the Tm [13] of the same protein?
Answer: 34.6 °C

Question: What about the “unfolding enthalpy (van 't Hoff)” value [13] of the same protein?
Answer: 93.9 kcal/mol

Question: What about the “unfolding enthalpy (calorimetric)” value (pH 11, absorbance, HEPES) of the same protein?
Answer: 66.4 kcal/mol

Question: And the unfolding free energy (pH 11, absorbance, HEPES)?
Answer: 2.32 kcal/mol
